Measured values reported in article PMC5281607.

Test: whole-cell patch clamp, AITC amplitude and rectification
Settings: glycan lost; control: vehicle-treated (untreated) cells

B1: TRPA1: tunicamycin 5 μg/ml, 24 h (protein)
parent chain: MKRSLRKMWRPGEKKEPQGVVYEDVPDDTEDFKESLKVVFEGSAYGLQNFNKQKKLKRCDDMDTFFLHYAAAEGQIELMEKITRDSSLEVLHEMDDYGNTPLHCAVEKNQIESVKFLLSRGANPNLRNFNMMAPLHIAVQGMNNEVMKVLLEHRTIDVNLEGENGNTAVIIACTTNNSEALQILLKKGAKPCKSNKWGCFPIHQAAFSGSKECMEIILRFGEEHGYSRQLHINFMNNGKATPLHLAVQNGDLEMIKMCLDNGAQIDPVEKGRCTAIHFAATQGATEIVKLMISSYSGSVDIVNTTDGCHETMLHRASLFDHHELADYLISVGADINKIDSEGRSPLILATASASWNIVNLLLSKGAQVDIKDNFGRNFLHLTVQQPYGLKNLRPEFMQMQQIKELVMDEDNDGCTPLHYACRQGGPGSVNNLLGFNVSIHSKSKDKKSPLHFAASYGRINTCQRLLQDISDTRLLNEGDLHGMTPLHLAAKNGHDKVVQLLLKKGALFLSDHNGWTALHHASMGGYTQTMKVILDTNLKCTDRLDEDGNTALHFAAREGHAKAVALLLSHNADIVLNKQQASFLHLALHNKRKEVVLTIIRSKRWDECLKIFSHNSPGNKCPITEMIEYLPECMKVLLDFCMLHSTEDKSCRDYYIEYNFKYLQCPLEFTKKTPTQDVIYEPLTALNAMVQNNRIELLNHPVCKEYLLMKWLAYGFRAHMMNLGSYCLGLIPMTILVVNIKPGMAFNSTGIINETSDHSEILDTTNSYLIKTCMILVFLSSIFGYCKEAGQIFQQKRNYFMDISNVLEWIIYTTGIIFVLPLFVEIPAHLQWQCGAIAVYFYWMNFLLYLQRFENCGIFIVMLEVILKTLLRSTVVFIFLLLAFGLSFYILLNLQDPFSSPLLSIIQTFSMMLGDINYRESFLEPYLRNELAHPVLSFAQLVSFTIFVPIVLMNLLIGLAVGDIAEVQKHASLKRIAMQVELHTSLEKKLPLWFLRKVDQKSTIVYPNKPRSGGMLFHIFCFLFCTGEIRQEIPNADKSLEMEILKQKYRLKDLTFLLEKQHELIKLIIQKMEIISETEDDDSHCSFQDRFKKEQMEQRNSRWNTVLRAVKAKTHHLEP
other: channel current: no change
